According to patent US20140141003A1 (Bayer, published 2014):
Substitutions are numbered along the chain they refer to. Like-named read-outs stand apart in the source and are kept apart here. Each block holds one binder with its values, some of them ahead of it.

Assays:
[1] = molecular target: human PRLR expressed on cells (human) (UniProt P16471); assay: flow cytometry on BaF3-human PRLR cells, IgG1 format
[2] = molecular target: T1, rhesus monkey PRLR expressed on cells (rhesus monkey, UniProt F7HIU9 25-619); assay: cell-based or functional assay
T1 sequence: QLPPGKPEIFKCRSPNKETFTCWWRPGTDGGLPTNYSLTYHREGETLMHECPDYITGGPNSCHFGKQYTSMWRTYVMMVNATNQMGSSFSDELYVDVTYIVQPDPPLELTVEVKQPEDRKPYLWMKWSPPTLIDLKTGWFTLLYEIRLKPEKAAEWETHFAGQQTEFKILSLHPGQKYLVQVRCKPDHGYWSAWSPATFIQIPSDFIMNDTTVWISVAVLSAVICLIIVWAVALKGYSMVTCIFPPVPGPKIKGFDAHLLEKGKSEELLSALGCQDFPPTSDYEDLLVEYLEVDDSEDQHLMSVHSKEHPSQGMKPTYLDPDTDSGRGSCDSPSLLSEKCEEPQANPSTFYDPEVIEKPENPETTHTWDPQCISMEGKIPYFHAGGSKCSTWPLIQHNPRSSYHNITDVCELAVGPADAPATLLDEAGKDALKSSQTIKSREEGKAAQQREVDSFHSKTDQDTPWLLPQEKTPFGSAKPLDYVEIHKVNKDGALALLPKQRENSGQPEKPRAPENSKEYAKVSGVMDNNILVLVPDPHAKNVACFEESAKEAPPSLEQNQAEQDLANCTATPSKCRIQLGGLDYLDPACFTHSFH

[3] = molecular target: human PRLR expressed on cells (human) (UniProt P16471); assay: flow cytometry on human T47D breast cancer cells (natural PRLR), IgG1 format
[4] = molecular target: human PRLR expressed on cells (human) (UniProt P16471); assay: cell-based or functional assay
[5] = molecular target: murine PRLR expressed on cells (mouse) (UniProt Q08501); assay: cell-based or functional assay
[6] = molecular target: human PRLR expressed on cells (human) (UniProt P16471); assay: flow cytometry on HEK293-human PRLR cells, IgG1 format
[7] = molecular target: T1, rhesus monkey PRLR expressed on cells; assay: flow cytometry on BaF3-rhesus PRLR cells, IgG1 format
[8] = molecular target: T2, extracellular domain of murine PRLR (soluble, monomeric) (mouse, UniProt Q08501 20-229); assay: SPR (Biacore T100), antibody captured via anti-human IgG Fc, monovalent ECD as analyte, Example 13
T2 construct: Expressed in HEK293 cells; also called Murine ECD PRLR; Mouse PRLR
T2 sequence: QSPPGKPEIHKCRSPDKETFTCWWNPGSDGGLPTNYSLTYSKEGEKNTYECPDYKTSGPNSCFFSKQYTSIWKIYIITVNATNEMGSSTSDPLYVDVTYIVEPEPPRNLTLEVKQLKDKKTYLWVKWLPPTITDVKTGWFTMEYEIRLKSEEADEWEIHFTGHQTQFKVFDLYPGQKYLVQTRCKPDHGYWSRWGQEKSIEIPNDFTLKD
Method: (§1) Antibodies were immobilized onto a CM5 sensor chip through an indirect capturing reagent, anti-human IgG Fc. […] Approximately 5000 RU monoclonal mouse anti-human IgG (Fc) antibody were immobilized per cell. Each test antibody was injected at a concentration of 5 μg/ml at 10 μl/min for 10 sec to reach a capturing level of approximately 200 to 600 RU. […] Sensograms were generated after in-line reference cell correction followed by buffer sample subtraction. The dissociation equilibrium constant (KD) was calculated based on the ratio of association (kon) and dissociation rated (koff=kd) constants, obtained by fitting sensograms with a first order 1:1 binding model using BiaEvaluation Software (see Table 7).

[9] = molecular target: T3, extracellular domain of human PRLR (soluble, monomeric) (human, UniProt P16471 25-234); assay: as above
T3 construct: also called Human ECD PRLR; ECD-PRLR
T3 sequence: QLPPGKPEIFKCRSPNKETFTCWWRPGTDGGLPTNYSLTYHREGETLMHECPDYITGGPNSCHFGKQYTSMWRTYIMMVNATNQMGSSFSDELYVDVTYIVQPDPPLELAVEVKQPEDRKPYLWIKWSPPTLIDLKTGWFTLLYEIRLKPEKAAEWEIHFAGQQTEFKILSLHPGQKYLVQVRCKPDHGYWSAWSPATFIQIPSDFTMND
Method: as §1

[10] = molecular target: T4, extracellular domain of rhesus and cynomolgus monkey PRLR (Fc-His removed by Factor Xa digestion) (rhesus and cynomolgus monkey, UniProt P16471 25-234 (human entry)); assay: as above
T4 construct: the fusion part was removed by Factor Xa before SPR; also called Rhesus/Cynomolgus PRLR; Rhesus and cynomolgus monkey ECD PRLR
T4 chain: T3 sequence with I76V, A110T, I125M, I158T, T207I
Method: as §1

[11] = molecular target: T3, extracellular domain of human PRLR …; assay: SPR: ECD-PRLR captured by immobilized Mat3 or HE06642, human PRL passed over
[12] = molecular target: human PRLR expressed on cells (human) (UniProt P16471); assay: cell-based or functional assay; remark: listed apart in the source
[13] = molecular target: murine PRLR expressed on cells (mouse) (UniProt Q08501); assay: cell-based or functional assay; remark: listed apart in the source
[14] = molecular target: murine PRLR expressed on cells (mouse) (UniProt Q08501); assay: flow cytometry on HEK293-murine PRLR cells, IgG1 format
[15] = molecular target: murine PRLR expressed on cells (mouse) (UniProt Q08501); assay: flow cytometry on BaF3-mouse PRLR cells, IgG1 format
[16] = molecular target: T1, rhesus monkey PRLR expressed on cells; assay: flow cytometry on Ba/F cells expressing rhesus monkey PRLR, Example 9
Method: The cells were harvested, centrifuged and resuspended at approximately 2×10⁶ cells/ml in 1×PBS containing 3% FBS and 0.05% sodium azide (FACS buffer). […] For secondary antibody and autofluorescence controls, 50 μl FACS buffer was added to appropriate wells. 50 μl of cell suspension was added to each sample well. Samples were incubated at 4° C. for one hour, washed twice with cold FRCS buffer and resuspended in FACS buffer containing PE-conjugated goat anti-human IgG at a 1:100 dilution. Following a 30 min incubation at 4° C., cells were washed twice with cold FACS buffer, resuspended in FACS buffer containing 1 mg/ml propidium iodide (Invitrogen, San Diego, Calif.) and analyzed by flow cytometry.

[17] = molecular target: human PRLR expressed on cells (human) (UniProt P16471); assay: flow cytometry on HEK293 cells expressing human PRLR, Example 9
[18] = molecular target: T2, extracellular domain of murine PRLR …; assay: SPR (Biacore T100), antibody captured via anti-human IgG Fc, monovalent ECD as analyte, Example 10
Method: (§2) Antibodies were immobilized onto a CM5 sensor chip through an indirect capturing reagent, anti-human IgG Fc. […] Approximately 5000 RU monoclonal mouse anti-human IgG (Fc) antibody were immobilized per cell. […] Sensograms were generated after in-line reference cell correction followed by buffer sample subtraction. The dissociation equilibrium constant (KD) was calculated based on the ratio of association (kon) and dissociation rated (koff=kd) constants, obtained by fitting sensograms with a first order 1:1 binding model using BiaEvaluation Software.

[19] = molecular target: T3, extracellular domain of human PRLR …; assay: as above
Method: as §2

[20] = molecular target: T4, extracellular domain of rhesus and …; assay: as above
Method: as §2

EC50 [1]: 0.2 nM | IC50, inhibition of prolactin-induced proliferation of BaF3 cells stably transfected with the rhesus prolactin receptor [2]: 206 nM | EC50 [3]: 0.8 nM | IC50, inhibition of LHRE luciferase reporter gene activity in HEK293 cells stably transfected with human PRLR [4]: 4.6 nM | IC50, inhibition of prolactin-induced proliferation of BaF3 cells stably transfected with human prolactin receptor [4]: 4.2 nM | IC50, inhibition of LHRE luciferase reporter gene activity in HEK293 cells stably transfected with murine PRLR [5]: > 1330 nM | EC50 [6]: 1.6 nM | EC50 [7]: 3.2 nM
B1: antibody HE06642 as IgG1 molecule (antibody, V domains shown)
VH: EVQLVESGGGLVQPGGSLRLSCAVSGFTFSSYGMSWVRQAPGKGLEWVATVSSGGTYTYYPDSVKGRFTISRDNSKNTLYLQMNSLRAEDTAVYYCARHRGNYYATYYYAMDYWGQGTLVTVSS
VL: DIVLTQSPDSLAVSLGERATINCKASKSVSTSGYTYMHWYQQKPGQPPKLLIYLASNRESGVPDRFSGSGSGTDFTLTISPVQAEDVATYYCQHSGELPPSFGQGTKLEIKR

Kd [8]: 15 nM | koff [8]: 0.0091 s⁻¹ | Kd [9]: 0.8 nM | koff [9]: 0.000533 s⁻¹ | Kd [10]: 17 nM | koff [10]: 0.00579 s⁻¹
B2: antibody HE06642 (isotype not stated) (antibody, V domains shown)
VH: B1 VH
VL: B1 VL
notes: Kappa light chain; also called he06.642-2 of WO 2008/022295

binding result [11]: binds
B3: human prolactin (ligand, UniProt P01236 29-227, looked up)
chain: LPICPGGAARCQVTLRDLFDRAVVLSHYIHNLSSEMFSEFDKRYTHGRGFITKAINSCHTSSLATPEDKEQAQQMNQKDFLSLIVSILRSWNEPLYHLVTEVRGMQEAPEAILSKAVEIEEQTKRLLEGMELIVSQVHPETKENEIYPVWSGLPSLQMADEESRLSAYYNLLHCLRRDSHKIDNYLKLLKCRIIHNNNC
notes: also called PRL; Human PRL

EC50 [1]: 0.1 nM | IC50, inhibition of prolactin-induced proliferation of BaF3 cells stably transfected with the rhesus prolactin receptor [2]: 4.6 nM | % inhibition of prolactin-induced proliferation at 1 µg/ml (=6.7 nM) [12]: 100% | IC50, inhibition of LHRE luciferase reporter gene activity in HEK293 cells stably transfected with human PRLR [12]: 0.5 nM | IC50, inhibition of prolactin-induced proliferation of BaF3 cells stably transfected with human prolactin receptor [12]: 0.7 nM | IC50, inhibition of LHRE luciferase reporter gene activity in HEK293 cells stably transfected with murine PRLR [13]: 1.3 nM | IC50, inhibition of prolactin-induced proliferation of BaF3 cells stably transfected with the murine prolactin receptor [13]: 3 nM | EC50 [14]: 0.1 nM | EC50 [3]: 0.4 nM | EC50 [6]: 0.8 nM | EC50 [15]: 0.2 nM | EC50 [7]: 1.2 nM
B4: antibody Mat3 in IgG1 format (antibody, V domains shown)
VH: EVQLLESGGGLVQPGGSLRLSCAASGFTFSSYWMHWVRQAPGKGLEWVSDIARLSSYTNYADSVKGRFTISRDNSKNTLYLQMNSLRAEDTAVYYCARGLDARRMDYWGQGTLVTVSS
VL: QSVLTQPPSASGTPGQRVTISCTGSSSNIGAGYVVHWYQQLPGTAPKLLIYRNNQRPSGVPDRFSGSKSGTSASLAISGLRSEDEADYYCAAWDDSLNGWLFGGGTKLTVLG
notes: also called Mat3 IgG1

EC50 [16]: 2.94 nM | EC50 [17]: 0.53 nM
B5: antibody Mat3 as human IgG2 molecule (antibody, V domains shown)
VH: B4 VH
VL: B4 VL
notes: also called IgG2 Mat3

Kd [18]: 0.4 nM | koff [18]: 0.00021 s⁻¹ | Kd [19]: 0.9 nM | koff [19]: 0.00044 s⁻¹ | Kd [20]: 7.1 nM | koff [20]: 0.0011 s⁻¹ | Kd [8]: 0.4 nM | koff [8]: 0.000164 s⁻¹ | Kd [9]: 1.3 nM | koff [9]: 0.000414 s⁻¹ | Kd [10]: 9.6 nM | koff [10]: 0.00102 s⁻¹
B6: antibody Mat3 as human IgG molecule (isotype not stated) (antibody, V domains shown)
VH: B4 VH
VL: B4 VL
notes: Lambda light chain; also called neutralizing prolactin receptor antibody Mat3
